Results from article PMC9317851, “Genomic Characterization of Bacillus safensis Isolated from Mine Tailings in Peru and Evaluation of Its Cyanide-Degrading Enzyme CynD” (Applied and Environmental Microbiology, 2022).

Columns and labels:
[1] = molecular target: the molecule itself; experiment: SEC-MALS; pH 9; 100 mM NaCl, 20 mM Tris-HCl; 100-μL injection of 3.47 mg/mL (89.36 μM) CynD; Superdex 200 increase 10/300 GL; size of the oligomers
[2] = molecular target: the molecule itself; experiment: SEC-MALS; pH 8; 100 mM NaCl, 20 mM Tris-HCl; 100-μL injection of 3.47 mg/mL (89.36 μM) CynD; Superdex 200 increase 10/300 GL; size of the oligomers
[3] = molecular target: the molecule itself; experiment: SEC-MALS; pH 10; 100 mM NaCl, 20 mM CAPS; 100-μL injection of 3.47 mg/mL (89.36 μM) CynD; Superdex 200 increase 10/300 GL; size of the oligomers

B1: Cyanide dihydratase CynD from Bacillus safensis PER-URP-08 (CynD_(PER-URP-08)), recombinant with C-terminal 6xHis tag (enzyme, UniProt P0DXY3 1-330, looked up)
chain: MTSIYPKFRAAAVQAAPVYLNLEATVEKSCELIDEAASNGAKLVAFPEAFLPGYPWFAFIGHPEYTRKFYHELYKNAVEIPSLAIQKISEAAKRNETYVCISCSEKDGGSLYLAQLWFNPNGDLIGKHRKMRASVAERLIWGDGSGSMMPVFQTDIGNLGGLMCWEHQVPLDLMAMNAQNEQVHVASWPGYFDDEISSRYYAIATQTFVLMTSSIYTEEMKEMICLTQEQRDYFETFKSGHTCIYGPDGEPISDMVPAETEGIAYAEIDVERVIDYKYYIDPAGHYSNQSLSMNFNQQPTPVVKQLYHQKNEVFTYEDIQYQHGILEEKV
notes: Cyanide dihydratase CynD of Bacillus safensis PER-URP-08, locus EGI07_08135; monomer 38.5 kDa; The forward primer carries the NdeI site CATATG followed by a further atg, so an added N-terminal Met may be present; also called recombinant CynD; EGI07_08135; source: E. coli BL21(DE3)/pLysS, purified (Ni-NTA, size exclusion chromatography); not shown: 6xHis, C-terminal, kept
[1]
  stoichiometry N: 4 to 6 mer
[2]
  stoichiometry N: 24 to 48 mer
[3]
  stoichiometry N: 3 to 5 mer
